# From publication PMC12020772 (Journal for Immunotherapy of Cancer, 2025)
# Columns and labels:
# [1] = target: MICA alpha-3 domain of MICA*001 (Homo sapiens, allele MICA*001, UniProt Q29983, strain); test: crystal structure
# [2] = target: MICA*001 extracellular domain (Homo sapiens, allele MICA*001, UniProt Q29983); test: ELISA
# [3] = target: MICA*002 extracellular domain (Homo sapiens, allele MICA*002 (stand-in …, UniProt Q29983)); test: ELISA
# [4] = target: MICB*004 extracellular domain (Homo sapiens, allele MICB*004, UniProt Q29980); test: BLI
binding result [1],binding result [2],binding result [3],Kd [4] [nM],Binder
binds,–,–,–,"Fab fragment of CLN-619 (Fab, V domains shown) VH: QVQLVESGGGLVKPGGSLRLSCAASGFTFSNYAMSWIRQAPGKGLEWVSYISPGGDYIYYADSVKGRFTISRDNAKNSLYLQMNSLRAEDTAVYYCTTDRRHYGSYAMDYWGQGTLVTVSS VL: DIVMTQSPLSLPVTPGEPASISCRSSKSLLHSNLNTYLYWFLQKPGQSPQILIYRMSNLASGVPDRFSGSGSGTAFTLKISRVEAEDVGVYYCMQHLEYPFTFGPGTKLEIK"
–,binds,binds,11.4,"CLN-619, humanized IgG1 monoclonal antibody against MICA/B (antibody, V domains shown) VH: QVQLVESGGGLVKPGGSLRLSCAASGFTFSNYAMSWIRQAPGKGLEWVSYISPGGDYIYYADSVKGRFTISRDNAKNSLYLQMNSLRAEDTAVYYCTTDRRHYGSYAMDYWGQGTLVTVSS VL: DIVMTQSPLSLPVTPGEPASISCRSSKSLLHSNLNTYLYWFLQKPGQSPQILIYRMSNLASGVPDRFSGSGSGTAFTLKISRVEAEDVGVYYCMQHLEYPFTFGPGTKLEIK"
